Measured values reported in article PMC2566886 (Nucleic Acids Research, 2008).

Target: the molecule itself
Experiment: cross-linking

B1: Xenopus Nudt16 protein (X29) (enzyme, Xenopus laevis)
chain: MAESRSPDRGAKEDKPRPRNISREESLQLEGYKHACHALLHAPSQAKLFDRVPIRRVLLMMMRFDGRLGFPGGFVDTRDISLEEGLKRELEEELGPALATVEVTEDDYRSSQVREHPQKCVTHFYIKELKLEEIERIEAEAVNAKDHGLEVMGLIRVPLYTLRDRVGGLPAFLCNNFIGNSKSQLLYALRSLKLLREDQIQEVLKASHRLQY
  stoichiometry N: ≥ 2
